# Data as given in the Human Domainome abundance scans (Beltran et al. 2025).
# ± gives the uncertainty stated by the source.
# B1: Gamma-crystallin C, residues 4 to 79; numbered along this chain, P07315 (parent)
# chain: ITFYEDRAFQGRSYETTTDCPNLQPYFSRCNSIRVESGCWMLYERPNYQGQQYLLRRGEYPDYQQWMGLSDSIRSC
# Variants of: B1
# Test: abundance fitness (aPCA) (normalised: wild type 0, dead -1); higher = more abundant; growth selection in yeast, the domain comes from the species named
# Settings: Homo sapiens
row,Variant,abundance fitness
1,ITFYEDRAFQGRSYETTTDCPNLQPYFSRCNSIRVESGCWMLYERPNYQGQQYLLRRGEYPDYQQNMGLSDSIRSC,0.091 ± 0.15
2,ITFYEDRAFQGRSYETTTDCPNLQPYFSRCNSIRVESGCWMLYERPNYQGQQYLLRRGEYPDYQQQMGLSDSIRSC,0.046 ± 0.17
3,ITFYEDRAFQGRSYETTTDCPNLQPYFSRCNSIRVESGCWMLYERPNYQGQQYLLRRGEYPDYQQIMGLSDSIRSC,-0.006 ± 0.11
4,ITFYEDRAFQGRSYETTTDCPNLQPYFSRCNSIRVESGCWMLYERPNYQGQQYLLRRGEYPDYQQGMGLSDSIRSC,0.059 ± 0.046
5,ITFYEDRAFQGRSYETTTDCPNLQPYFSRCNSIRVESGCWMLYERPNYQGQQYLLRRGEYPDYQQKMGLSDSIRSC,-0.023 ± 0.095
6,ITFYEDRAFQGRSYETTTDCPNLQPYFSRCNSIRVESGCWMLYERPNYQGQQYLLRRGEYPDYQQVMGLSDSIRSC,0.018 ± 0.077
7,ITFYEDRAFQGRSYETTTDCPNLQPYFSRCNSIRVESGCWMLYERPNYQGQQYLLRRGEYPDYQQHMGLSDSIRSC,-0.01 ± 0.18
8,ITFYEDRAFQGRSYETTTDCPNLQPYFSRCNSIRVESGCWMLYERPNYQGQQYLLRRGEYPDYQQCMGLSDSIRSC,-0.168 ± 0.13
9,ITFYEDRAFQGRSYETTTDCPNLQPYFSRCNSIRVESGCWMLYERPNYQGQQYLLRRGEYPDYQQDMGLSDSIRSC,-0.12 ± 0.12
10,ITFYEDRAFQGRSYETTTDCPNLQPYFSRCNSIRVESGCWMLYERPNYQGQQYLLRRGEYPDYQQAMGLSDSIRSC,0.039 ± 0.078
11,ITFYEDRAFQGRSYETTTDCPNLQPYFSRCNSIRVESGCWMLYERPNYQGQQYLLRRGEYPDYQQPMGLSDSIRSC,0.005 ± 0.1
12,ITFYEDRAFQGRSYETTTDCPNLQPYFSRCNSIRVESGCWMLYERPNYQGQQYLLRRGEYPDYQQLMGLSDSIRSC,-0.082 ± 0.074
13,ITFYEDRAFQGRSYETTTDCPNLQPYFSRCNSIRVESGCWMLYERPNYQGQQYLLRRGEYPDYQQMMGLSDSIRSC,-0.093 ± 0.14
14,ITFYEDRAFQGRSYETTTDCPNLQPYFSRCNSIRVESGCWMLYERPNYQGQQYLLRRGEYPDYQQYMGLSDSIRSC,0.069 ± 0.12
15,ITFYEDRAFQGRSYETTTDCPNLQPYFSRCNSIRVESGCWMLYERPNYQGQQYLLRRGEYPDYQQFMGLSDSIRSC,-0.009 ± 0.11
16,ITFYEDRAFQGRSYETTTDCPNLQPYFSRCNSIRVESGCWMLYERPNYQGQQYLLRRGEYPDYQQEMGLSDSIRSC,0.068 ± 0.098
17,ITFYEDRAFQGRSYETTTDCPNLQPYFSRCNSIRVESGCWMLYERPNYQGQQYLLRRGEYPDYQQTMGLSDSIRSC,0.021 ± 0.083
18,ITFYEDRAFQGRSYETTTDCPNLQPYFSRCNSIRVESGCWMLYERPNYQGQQYLLRRGEYPDYYQWMGLSDSIRSC,-0.182 ± 0.14

row,Variant,abundance fitness
1,ITFYEDRAFQGRSYETTTDCPNLQPYFSRCNSIRVESGCWMLYERPNYQGQQYLLRRGEYPDYVQWMGLSDSIRSC,-0.022 ± 0.062
2,ITFYEDRAFQGRSYETTTDCPNLQPYFSRCNSIRVESGCWMLYERPNYQGQQYLLRRGEYPDYWQWMGLSDSIRSC,-0.021 ± 0.07
3,ITFYEDRAFQGRSYETTTDCPNLQPYFSRCNSIRVESGCWMLYERPNYQGQQYLLRRGEYPDYQQWMGCSDSIRSC,0.07 ± 0.12
4,ITFYEDRAFQGRSYETTTDCPNLQPYFSRCNSIRVESGCWMLYERPNYQGQQYLLRRGEYPDYQHWMGLSDSIRSC,-0.065 ± 0.089
5,ITFYEDRAFQGRSYETTTDCPNLQPYFSRCNSIRVESGCWMLYERPNYQGQQYLLRRGEYPDYQMWMGLSDSIRSC,0.015 ± 0.24
6,ITFYEDRAFQGRSYETTTDCPNLQPYFSRCNSIRVESGCWMLYERPNYQGQQYLLRRGEYPDYQSWMGLSDSIRSC,-0.042 ± 0.064
7,ITFYEDRAFQGRSYETTTDCPNLQPYFSRCNSIRVESGCWMLYERPNYQGQQYLLRRGEYPDYQKWMGLSDSIRSC,-0.175 ± 0.22
8,ITFYEDRAFQGRSYETTTDCPNLQPYFSRCNSIRVESGCWMLYERPNYQGQQYLLRRGEYPDYQLWMGLSDSIRSC,-0.088 ± 0.064
9,ITFYEDRAFQGRSYETTTDCPNLQPYFSRCNSIRVESGCWMLYERPNYQGQQYLLRRGEYPDYQRWMGLSDSIRSC,-0.036 ± 0.057
10,ITFYEDRAFQGRSYETTTDCPNLQPYFSRCNSIRVESGCWMLYERPNYQGQQYLLRRGEYPDYQDWMGLSDSIRSC,-0.019 ± 0.085
11,ITFYEDRAFQGRSYETTTDCPNLQPYFSRCNSIRVESGCWMLYERPNYQGQQYLLRRGEYPDYQTWMGLSDSIRSC,-0.089 ± 0.057
12,ITFYEDRAFQGRSYETTTDCPNLQPYFSRCNSIRVESGCWMLYERPNYQGQQYLLRRGEYPDYQAWMGLSDSIRSC,0.006 ± 0.068
13,ITFYEDRAFQGRSYETTTDCPNLQPYFSRCNSIRVESGCWMLYERPNYQGQQYLLRRGEYPDYQPWMGLSDSIRSC,0.027 ± 0.1
14,ITFYEDRAFQGRSYETTTDCPNLQPYFSRCNSIRVESGCWMLYERPNYQGQQYLLRRGEYPDYQEWMGLSDSIRSC,0.052 ± 0.073
15,ITFYEDRAFQGRSYETTTDCPNLQPYFSRCNSIRVESGCWMLYERPNYQGQQYLLRRGEYPDYQYWMGLSDSIRSC,0.029 ± 0.13
16,ITFYEDRAFQGRSYETTTDCPNLQPYFSRCNSIRVESGCWMLYERPNYQGQQYLLRRGEYPDYQNWMGLSDSIRSC,0.014 ± 0.14
17,ITFYEDRAFQGRSYETTTDCPNLQPYFSRCNSIRVESGCWMLYERPNYQGQQYLLRRGEYPDYQIWMGLSDSIRSC,-0.133 ± 0.15
18,ITFYEDRAFQGRSYETTTDCPNLQPYFSRCNSIRVESGCWMLYERPNYQGQQYLLRRGEYPDYQFWMGLSDSIRSC,-0.253 ± 0.13
